Laboratory results as given in US20130005646A1 (Novo Nordisk, published 2013).
Starred links: 1 amine or outer side, 2 acyl side, 3 side chain; linkers in the order of their positions; H or OH if unused. Positions of bridges follow the written chain, without caps; N, C: chain ends. Groups on a side chain read outwards from the residue. No end group written: not given here. *: point of attachment. C20 diacid = O=C(O)CCCCCCCCCCCCCCCCCCC(=O)*; γGlu = O=C(O)[C@H](CCC(=O)[*:2])N[*:1]; AEEA = NCCOCCOCC(=O)O

Legend:
[1] = biological target: T1, human amylin 3(a) receptor (human calcitonin receptor + RAMP-3) (human, UniProt P30988 25-474; O60896 24-148); assay: cell-based or functional assay
T1 sequence (looked up) 1: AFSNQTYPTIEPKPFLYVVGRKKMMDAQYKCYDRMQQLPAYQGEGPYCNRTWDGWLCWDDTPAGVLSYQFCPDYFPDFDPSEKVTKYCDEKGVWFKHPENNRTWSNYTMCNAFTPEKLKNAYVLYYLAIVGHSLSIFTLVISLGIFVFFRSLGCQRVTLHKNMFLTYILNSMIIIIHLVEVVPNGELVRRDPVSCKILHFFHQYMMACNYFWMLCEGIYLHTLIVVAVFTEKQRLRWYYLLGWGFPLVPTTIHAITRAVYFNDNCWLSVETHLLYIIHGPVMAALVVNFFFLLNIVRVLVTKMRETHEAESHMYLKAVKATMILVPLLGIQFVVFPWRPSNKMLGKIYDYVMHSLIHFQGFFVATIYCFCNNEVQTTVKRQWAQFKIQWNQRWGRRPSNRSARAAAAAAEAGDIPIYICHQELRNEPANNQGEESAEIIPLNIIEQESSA
T1 sequence (looked up) 2: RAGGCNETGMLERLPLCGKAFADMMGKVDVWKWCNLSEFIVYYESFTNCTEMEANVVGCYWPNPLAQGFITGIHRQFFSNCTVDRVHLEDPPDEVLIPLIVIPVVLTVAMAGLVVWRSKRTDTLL

[2] = biological target: T2, human calcitonin (a) receptor (human, UniProt P30988 25-474); assay: cell-based or functional assay
T2 sequence (looked up): T1 sequence (looked up) 1

B1: N-alpha-[(S)-4-Carboxy-4-(19-carboxynonadecanoylamino)butyryl]-[Glu14,His17,Thr21,Pro37]-pramlintide (peptide)
peptide: {C20 diacid-γGlu}-KCNTATCATQRLAEFLHHSSTNFGPILPPTNVGSNTP-NH2
modifications: disulfide 2-7
SMILES: CC[C@H](C)[C@H](NC(=O)[C@@H]1CCCN1C(=O)CNC(=O)[C@H](Cc1ccccc1)NC(=O)[C@H](CC(N)=O)NC(=O)[C@@H](NC(=O)[C@H](CO)NC(=O)[C@H](CO)NC(=O)[C@H](Cc1c[nH]cn1)NC(=O)[C@H](Cc1c[nH]cn1)NC(=O)[C@H](CC(C)C)NC(=O)[C@H](Cc1ccccc1)NC(=O)[C@H](CCC(=O)O)NC(=O)[C@H](C)NC(=O)[C@H](CC(C)C)NC(=O)[C@H](CCCNC(=N)N)NC(=O)[C@H](CCC(N)=O)NC(=O)[C@@H](NC(=O)[C@H](C)NC(=O)[C@@H]1CSSC[C@H](NC(=O)[C@H](CCCCN)NC(=O)CC[C@H](NC(=O)CCCCCCCCCCCCCCCCCCC(=O)O)C(=O)O)C(=O)N[C@@H](CC(N)=O)C(=O)N[C@@H]([C@@H](C)O)C(=O)N[C@@H](C)C(=O)N[C@@H]([C@@H](C)O)C(=O)N1)[C@@H](C)O)[C@@H](C)O)C(=O)N[C@@H](CC(C)C)C(=O)N1CCC[C@H]1C(=O)N1CCC[C@H]1C(=O)N[C@H](C(=O)N[C@@H](CC(N)=O)C(=O)N[C@H](C(=O)NCC(=O)N[C@@H](CO)C(=O)N[C@@H](CC(N)=O)C(=O)N[C@H](C(=O)N1CCC[C@H]1C(N)=O)[C@@H](C)O)C(C)C)[C@@H](C)O
B1 was tested, and the “Amylin receptor human EC50” value [1] was 91 pM and the “CTa receptor human EC50” value [2] was 59.5 pM.

B2: N-alpha-[(S)-4-Carboxy-4-(19-carboxynonadecanoylamino)butyryl]-[Lys11,Glu14,His17,Pro37]-pramlintide (peptide)
peptide: {C20 diacid-γGlu}-KCNTATCATQKLAEFLHHSSNNFGPILPPTNVGSNTP-NH2
modifications: disulfide 2-7
SMILES: CC[C@H](C)[C@H](NC(=O)[C@@H]1CCCN1C(=O)CNC(=O)[C@H](Cc1ccccc1)NC(=O)[C@H](CC(N)=O)NC(=O)[C@H](CC(N)=O)NC(=O)[C@H](CO)NC(=O)[C@H](CO)NC(=O)[C@H](Cc1c[nH]cn1)NC(=O)[C@H](Cc1c[nH]cn1)NC(=O)[C@H](CC(C)C)NC(=O)[C@H](Cc1ccccc1)NC(=O)[C@H](CCC(=O)O)NC(=O)[C@H](C)NC(=O)[C@H](CC(C)C)NC(=O)[C@H](CCCCN)NC(=O)[C@H](CCC(N)=O)NC(=O)[C@@H](NC(=O)[C@H](C)NC(=O)[C@@H]1CSSC[C@H](NC(=O)[C@H](CCCCN)NC(=O)CC[C@H](NC(=O)CCCCCCCCCCCCCCCCCCC(=O)O)C(=O)O)C(=O)N[C@@H](CC(N)=O)C(=O)N[C@@H]([C@@H](C)O)C(=O)N[C@@H](C)C(=O)N[C@@H]([C@@H](C)O)C(=O)N1)[C@@H](C)O)C(=O)N[C@@H](CC(C)C)C(=O)N1CCC[C@H]1C(=O)N1CCC[C@H]1C(=O)N[C@H](C(=O)N[C@@H](CC(N)=O)C(=O)N[C@H](C(=O)NCC(=O)N[C@@H](CO)C(=O)N[C@@H](CC(N)=O)C(=O)N[C@H](C(=O)N1CCC[C@H]1C(N)=O)[C@@H](C)O)C(C)C)[C@@H](C)O
B2 was tested, and the “Amylin receptor human EC50” value [1] was 80.5 pM and the “CTa receptor human EC50” value [2] was 83 pM.

For KCNTATCATQRLAEFLVHSSK([AEEA-AEEA-γGlu-19‑carboxyheptadecanoyl])NFGPILSRTNVGSHTY-NH2 (disulfide 2-7), the “Amylin receptor human EC50” value [1] was 540 pM and the “CTa receptor human EC50” value [2] was 229 pM.

KCNTATCATQRLAEFLHHSSK([AEEA-AEEA-γGlu-19‑carboxyheptadecanoyl])NFGPILSSTNVGSHTY-NH2 (disulfide 2-7) was tested, and the “Amylin receptor human EC50” value [1] was 1030 pM and the “CTa receptor human EC50” value [2] was 319 pM.

For KCNTATCATQRLAEFLVRSSK([AEEA-AEEA-γGlu-19‑carboxyheptadecanoyl])NFGPILSRTNVGSRTY-NH2 (disulfide 2-7), the “Amylin receptor human EC50” value [1] was 344 pM and the “CTa receptor human EC50” value [2] was 732 pM.
